Results from patent publication US20230192830A1 (VOYAGER THERAPEUTICS, published 2023).

Legend:
[1] = target: T1, enriched paired helical filament tau protein (ePHF) (human, UniProt P10636 2-758); test: direct ELISA, ePHF coated
T1 construct: Sarkosyl-insoluble filaments isolated from human frontal cortical tissue; aggregated, isoform mix and phosphorylated residues not specified; also called sarkosyl insoluble tau
Description: (§1) These candidate antibodies were analyzed for binding to ePHF and specificity for ePHF over wild type tau by direct ELISA.
(§2) For direct ePHF and wildtype tau ELISA, plates were first coated with ePHF or wild type tau. Antigen solutions were prepared in PBS and 50 µL were pipetted into each well. Plates were covered and incubated for one hour at 37° C. or overnight at 4° C. Plates were then washed and blocked by addition of 150 µl of blocking buffer to each well and incubated one hour at room temperature. Plates were then washed before addition of serially diluted candidate antibody samples prepared in blocking buffer. Detection of candidate antibody binding was carried out by washing plates and adding a solution of enzyme-labeled secondary antibody in blocking buffer to each well. Secondary antibody binding was detected by addition of substrate and spectrophotometric analysis of resulting reaction product.

[2] = target: wild type tau (UniProt P10636-8 1-441, limits assumed); test: direct ELISA, wild type tau coated
Description: as §1, §2

[3] = target: T1, enriched paired helical filament tau …; test: cell-based or functional assay
[4] = target: T1, enriched paired helical filament tau …; test: follow up analysis, method not stated
[5] = target: iPHF (UniProt P10636-8 1-441); test: Octet, epitope binning of Example 4
Sequence of iPHF (P10636 other isoform, or with tags, fused parts or gaps): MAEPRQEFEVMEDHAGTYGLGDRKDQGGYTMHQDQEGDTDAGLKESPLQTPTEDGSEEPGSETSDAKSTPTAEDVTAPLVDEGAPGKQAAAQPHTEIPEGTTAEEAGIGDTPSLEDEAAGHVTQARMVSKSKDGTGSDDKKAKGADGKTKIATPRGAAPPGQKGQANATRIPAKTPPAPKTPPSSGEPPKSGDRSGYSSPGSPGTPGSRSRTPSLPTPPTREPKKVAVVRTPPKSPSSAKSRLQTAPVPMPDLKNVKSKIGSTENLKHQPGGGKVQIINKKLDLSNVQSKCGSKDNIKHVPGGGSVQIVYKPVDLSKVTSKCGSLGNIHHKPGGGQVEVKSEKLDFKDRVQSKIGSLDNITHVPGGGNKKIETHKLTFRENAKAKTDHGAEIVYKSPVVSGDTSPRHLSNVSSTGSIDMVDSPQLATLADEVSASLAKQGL
Description: Variable domain nucleic acid sequences from antibodies obtained from immunizations described above were used to prepare recombinant mouse IgG antibodies for iPHF affinity measurement and epitope binding competition analysis. Studies were carried out by Octet (ForteBio, Menlo Park, CA) analysis.
For epitope binding competition analysis, a process also referred to as “epitope binning,” candidate antibodies were analyzed using a sandwich assay format, wherein a first “capture” antibody is attached to the Octet biosensor before antigen and a second antibody are sequentially introduced and biosensor readings are used to determine whether one or both antibodies bind to each antigen. […] PT3, IPN002, or C10.2 antibodies were used as capture antibodies and immobilized on AMC biosensor tips as described above. Biosensor tips were then washed and blocked in 10 µg/ml MOPC. After a further wash, biosensor capture antibodies were associated with iPHF. Candidate antibodies were then analyzed for binding to iPHF. MOPC (non antigen-specific control) and PT3, IPN002, or C10.2 antibodies (in each case matching the biosensor antibody) were used as directly competing controls.

T1 sequence (P10636 other isoform, or with tags, fused parts or gaps limits assumed): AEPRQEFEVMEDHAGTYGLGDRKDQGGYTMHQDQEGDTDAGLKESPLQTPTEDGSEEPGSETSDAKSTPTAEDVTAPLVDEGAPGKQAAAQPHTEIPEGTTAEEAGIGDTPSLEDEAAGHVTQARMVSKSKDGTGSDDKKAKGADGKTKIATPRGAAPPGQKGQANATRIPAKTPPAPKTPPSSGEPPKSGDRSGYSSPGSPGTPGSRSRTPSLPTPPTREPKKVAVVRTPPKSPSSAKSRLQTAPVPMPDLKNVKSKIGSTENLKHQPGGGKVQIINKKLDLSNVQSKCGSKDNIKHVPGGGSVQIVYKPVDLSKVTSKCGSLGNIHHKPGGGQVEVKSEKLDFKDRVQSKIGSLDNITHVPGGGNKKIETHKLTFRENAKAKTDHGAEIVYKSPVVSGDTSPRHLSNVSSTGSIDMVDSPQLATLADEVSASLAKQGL
Sequence of wild type tau (P10636 other isoform, or with tags, fused parts or gaps limits assumed): as the sequence (P10636 other isoform, or with tags, fused parts or gaps) above

B1: V00018 (antibody, mouse IgG1, V domains shown)
VH: QVQLQQPGADLVRPGSSVKLSCKASGYTFTRSWMHWVKQRPIEGLEWIGNIDPSDSEAHYNQKFKDKATLTVDKFSNTAYMQLSSLTSEDSAVYYCARWDDFYVAYWGQGTLVTVSA
VL: DIVLTQSPASLAVSLGQRATISCRASKSVSTSGYSYIHWYQQKPGQPPKLLIYLASNLESGVPARFSGSGSGTDFTLNIHPVEEEDAATYYCQHSRELPWTFGGGTKLEIK
EC50 [1]: 0.718 nM

B2: V0035 (antibody, mouse IgG1, V domains shown)
VH: EAQLQQSGAELVRPGSSVKMSCKTSGYTFTSYGINWVKQRPGQGLEWIGYIYIRNGNTAYNEKFKGKATVTSDTSSSTVYMQLSSLTSEDSAIYFCAGTGTSFTYWGQGTLVTVSA
VL: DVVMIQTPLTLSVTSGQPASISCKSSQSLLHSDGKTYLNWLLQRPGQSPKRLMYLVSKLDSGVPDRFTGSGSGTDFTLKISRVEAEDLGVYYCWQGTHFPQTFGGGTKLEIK
EC50 [1]: 0.315 nM

B3: V0034 (antibody, mouse IgG1, V domains shown)
VH: EVQLQQSGAELVRPGSSVKMSCKTSGYTFTSYGINWVKQRPGQGLEWVGYIYIRDGNTAYNEKFKGKATVTSDTSSSTVYMQLSSLTSEDSAIYFCAGTGTSFAYWGQGTLVTVSA
VL: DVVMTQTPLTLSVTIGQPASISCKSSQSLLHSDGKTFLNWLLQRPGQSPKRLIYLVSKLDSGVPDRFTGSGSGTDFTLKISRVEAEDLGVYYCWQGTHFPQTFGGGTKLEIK
EC50 [1]: 0.351 nM

B4: V2004 (antibody, mouse IgG1, V domains shown)
VH: QVQLQQSGAELARPGASVKLSCKSSGYIFSSYWMQWVKQRPGQGLEWIGAIYPGDGDTRYTPKFKGKATLTADKSSSTAYMQLTSLASEDSAVYYCAKGYSQSFDYWGQGTTLTVSS
VL: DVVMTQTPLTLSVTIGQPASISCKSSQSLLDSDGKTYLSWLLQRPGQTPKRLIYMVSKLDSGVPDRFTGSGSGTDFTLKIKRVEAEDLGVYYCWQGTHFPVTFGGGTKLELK
binding result [2]: no binding

B5: V0023 (antibody, mouse IgG1, V domains shown)
VH: QVQLQQPGTELVKPGASVKLSCKASGYTFTIFWMHWVKQRPGHGLEWIGKINPNNGGGDYNEKFKSKATLTVDKSSTTAYLQLSSLTSEDSAVYYCARGTGTGAMDYWGQGTSVTVSS
VL: DVVMTQTPLSLPVSLGDHASISCRSSQSLVHSNGITHLYWYLQRPGQTPKLLIYRVSNRFSGVPDRFSGSGSGTDFTLKISSVEAEDLGVYFCFQGTHVPRTFGGGTKLEIE
Average IC50 (nM), tau aggregation inhibition, immunodepletion assay with tau RD Biosensor cells [3]: 16.5 nM | EC50 [1]: 0.11 nM | selectivity for ePHF over wild type tau [4]: > 100 fold

B6: V0024 (antibody, mouse IgG1, V domains shown)
VH: QVQLQQPGTELVKPGASVKLSCKASGYTFTRFWMHWVKQRPGQGLEWIGNINPNNGGTDNNERFKSKATLTVDRSSSTAYMQLSSLTSEDSAVYYCARGTGTGAMDYWGQGTSVTVSS
VL: DVVMTQTPLSLPVSLGDQASISCRSSQSLVHSNGNTHLYWYLQKPGQSPKLLIYRVSSRFSGVPDRFSGSGSGTDFTLKISRVEAEDLGVYFCFQGTHVPRTFGGGTKLEIK
Average IC50 (nM), tau aggregation inhibition, immunodepletion assay with tau RD Biosensor cells [3]: 18.6 nM

B7: V0025 (antibody, mouse IgG1, V domains shown)
VH: QVQLQQPGTELVKPGASVKLSCKASGFTFTRFWMHWVKQRPGQGLEWIGNINPNNGETNYNEKFKIKAALTVDKSSTTAYMQLSSLTSEDSAVYSCARGTGTGAMDYWGQGTSVTVSS
VL: DVVMTQTPLSLPVSLGDQASISCRSSQSLVHSTGNTYLYWYLQKPGQSPKLLIYRVSTRFSGVPDRFSGSGSGTDFTLKINRVEAEDLGVYFCFQGTHVPRTFGGGTKLEIK
EC50 [1]: 0.098 nM

B8: V0022 (antibody, mouse IgG1, V domains shown)
VH: QVQLQQPGTELVKPGSSVNLSCKASGFTFTRYWMHWVKERPGHGLEWIGNINPNNGGTDFNEKFKNKATLTVHKSSTTVFIQLSSLTSEDSAVYYCARGTGTGAMDYWGQGTSVTVSS
VL: DVVMTQTPLSLPVSLGDQASISCRSSQSLVHNNGITYLYWYLQKPGQSPKLLIYRVSNRFSGVPDRFGGSGSGTDFTLKISRVEAEDLGVYFCFQGTHVPRTFGGGTKLEIK
Average IC50 (nM), tau aggregation inhibition, immunodepletion assay with tau RD Biosensor cells [3]: 18.2 nM | EC50 [1]: 0.07 nM | selectivity for ePHF over wild type tau [4]: > 100 fold

B9: V00014 (antibody, mouse IgG1, V domains shown)
VH: QAYLQQSGAELVRPGASVKMSCKASGYTFTSYNMHWVKQTPRQGLEWIGAIYPGNGDTSYNQKFKGKATLTVDKSSSTAYMQLSSLTSEDSAVYFCARGGMDYWGQGTSVTVSS
VL: DVVMTQTPLSLPVSLGDQASISCRSSQSLVHSNGNTYLHWYLQKPGQSPKLLIYKVSNRFSGVPDRFSGSGSGTDFTLKISRVEAEDLGVYFCSQSTHVPYTFGGGTKLEIK
binding result [2]: no binding | binding result [5]: no binding
